Assay [1] has as its target Nanoluc-GCGR fusion protein (human) (UniProt P47871). Put plainly: FRET or BRET.
Assay [2] concerns the target mC-GCGR-31C-NBD (minimal cysteine GCGR labelled with NBD on the N-terminal helix of the ECD) (human) (UniProt P47871). Nature of the assay: other fluorescence titration.
The target in assay [3] is mC-GCGR-345C-NBD (minimal cysteine GCGR labelled with NBD at the cytoplasmic end of TM6) (human) (UniProt P47871). Nature of the assay: other fluorescence titration.
For assay [4], the target named is Human glucagon receptor (Q27-F477) (human, UniProt P47871 27-477). Nature of the assay: pull-down.

The values below come from publication PMC10144504 (Cell, 2023).

Sequence of Human glucagon receptor (Q27-F477) (P47871 27-477): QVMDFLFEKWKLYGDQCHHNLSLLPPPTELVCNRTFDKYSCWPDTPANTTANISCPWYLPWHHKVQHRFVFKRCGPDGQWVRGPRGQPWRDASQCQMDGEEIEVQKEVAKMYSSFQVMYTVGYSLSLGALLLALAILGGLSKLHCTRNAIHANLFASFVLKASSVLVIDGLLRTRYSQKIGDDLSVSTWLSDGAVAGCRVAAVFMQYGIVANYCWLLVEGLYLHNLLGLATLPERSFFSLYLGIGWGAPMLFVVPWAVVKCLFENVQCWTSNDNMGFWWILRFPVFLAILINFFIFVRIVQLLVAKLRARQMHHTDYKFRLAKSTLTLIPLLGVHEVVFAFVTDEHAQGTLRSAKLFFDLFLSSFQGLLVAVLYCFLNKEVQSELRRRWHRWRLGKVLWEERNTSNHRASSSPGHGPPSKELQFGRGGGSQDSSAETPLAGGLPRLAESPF
Sequence of Nanoluc-GCGR fusion protein (human) (P47871 26-477): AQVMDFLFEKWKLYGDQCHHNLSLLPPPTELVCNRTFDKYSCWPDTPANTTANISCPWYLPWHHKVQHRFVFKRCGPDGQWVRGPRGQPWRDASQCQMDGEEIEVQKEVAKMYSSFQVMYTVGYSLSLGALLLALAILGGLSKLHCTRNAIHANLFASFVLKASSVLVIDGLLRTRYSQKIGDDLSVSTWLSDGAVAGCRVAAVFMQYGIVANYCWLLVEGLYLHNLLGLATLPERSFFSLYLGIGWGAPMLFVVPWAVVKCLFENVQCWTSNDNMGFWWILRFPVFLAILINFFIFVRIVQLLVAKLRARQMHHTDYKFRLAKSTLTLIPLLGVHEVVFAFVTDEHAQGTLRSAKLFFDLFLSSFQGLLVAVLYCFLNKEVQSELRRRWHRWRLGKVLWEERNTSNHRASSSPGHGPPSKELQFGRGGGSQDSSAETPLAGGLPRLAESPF

Dasi-E21S-A17K(TAMRA) (peptide) displayed a fold decrease in affinity with co-expressed RAMP2 against without RAMP2 in assay [1] of 2.9 fold.
The EC50 is the concentration needed to bring the measured effect to its halfway point. A higher EC50 goes with a need for much substance. Regarding “human RAMP2 (residues 43-175) (from UniProt O60895 43-175) (natural protein)”, the EC50 amounted to 131 nM in assay [2] and 225 nM in assay [3].

B1: human RAMP2 (residues 43-175) (natural protein, UniProt O60895 43-175, looked up)
chain: QPLPTTGTPGSEGGTVKNYETAVQFCWNHYKDQMDPIEKDWCDWAMISRPYSTLRDCLEHFAELFDLGFPNPLAERIIFETHQIHFANCSLVQPTFSDPPEDVLLAMIIAPICLIPFLITLVVWRSKDSEAQA
For the molecule B1, in assay [4], the binding result is given as “binds”.
